# Target: the molecule itself
# Experiment: SEC; Superdex 200 size-exclusion column pre-calibrated with Bio-Rad gel-filtration standards, in purification buffer (50 mM Tris-HCl pH 8.0, 100 mM NaCl, 10% glycerol); monomer to dimer
protein,measurement,value
"Wild-type ProRS fragment of human EPRS1 (aa 930-1512) (domain or fragment, UniProt P07814 930-1512, looked up, ProRS fragment of human EPRS1 (glutamyl-prolyl-tRNA synthetase), aa 930-1512, subcloned in pTRC-HisB; also called recombinant WT ProRS; ProRS domain; source: E. coli BL21 Codon-plus (DE3)RIPL, purified (HisTrap HP column)) IAVQELLQLKAQYKSLIGVEYKPVSATGAEDKDKKKKEKENKSEKQNKPQKQNDGQRKDPSKNQGGGLSSSGAGEGQGPKKQTRLGLEAKKEENLADWYSQVITKSEMIEYHDISGCYILRPWAYAIWEAIKDFFDAEIKKLGVENCYFPMFVSQSALEKEKTHVADFAPEVAWVTRSGKTELAEPIAIRPTSETVMYPAYAKWVQSHRDLPIKLNQWCNVVRWEFKHPQPFLRTREFLWQEGHSAFATMEEAAEEVLQILDLYAQVYEELLAIPVVKGRKTEKEKFAGGDYTTTIEAFISASGRAIQGGTSHHLGQNFSKMFEIVFEDPKIPGEKQFAYQNSWGLTTRTIGVMTMVHGDNMGLVLPPRVACVQVVIIPCGITNALSEEDKEALIAKCNDYRRRLLSVNIRVRADLRDNYSPGWKFNHWELKGVPIRLEVGPRDMKSCQFVAVRRDTGEKLTVAENEAETKLQAILEDIQVTLFTRASEDLKTHMVVANTMEDFQKILDSGKIVQIPFCGEIDCEDWIKKTTARDQDLEPGAPSMGAKSLCIPFKPLCELQPGAKCVCGKNPAKYYTLFGRSY",stoichiometry N,2
"P1482T mutant ProRS fragment of human EPRS1 (aa 930-1512) (domain or fragment, UniProt P07814 930-1512, looked up, The substitution is a natural patient variant; also called Pro1482Thr ProRS; P1482T ProRS; source: E. coli BL21 Codon-plus (DE3)RIPL, purified (HisTrap HP column)) IAVQELLQLKAQYKSLIGVEYKPVSATGAEDKDKKKKEKENKSEKQNKPQKQNDGQRKDPSKNQGGGLSSSGAGEGQGPKKQTRLGLEAKKEENLADWYSQVITKSEMIEYHDISGCYILRPWAYAIWEAIKDFFDAEIKKLGVENCYFPMFVSQSALEKEKTHVADFAPEVAWVTRSGKTELAEPIAIRPTSETVMYPAYAKWVQSHRDLPIKLNQWCNVVRWEFKHPQPFLRTREFLWQEGHSAFATMEEAAEEVLQILDLYAQVYEELLAIPVVKGRKTEKEKFAGGDYTTTIEAFISASGRAIQGGTSHHLGQNFSKMFEIVFEDPKIPGEKQFAYQNSWGLTTRTIGVMTMVHGDNMGLVLPPRVACVQVVIIPCGITNALSEEDKEALIAKCNDYRRRLLSVNIRVRADLRDNYSPGWKFNHWELKGVPIRLEVGPRDMKSCQFVAVRRDTGEKLTVAENEAETKLQAILEDIQVTLFTRASEDLKTHMVVANTMEDFQKILDSGKIVQIPFCGEIDCEDWIKKTTARDQDLEPGAPSMGAKSLCITFKPLCELQPGAKCVCGKNPAKYYTLFGRSY",stoichiometry N,2

# From article PMC11106242, “Homozygous EPRS1 missense variant causing hypomyelinating leukodystrophy-15 alters variant-distal mRNA m^6A site accessibility” (Nature Communications, 2024)
